Test results taken from patent US6387681.

System: NheI restriction endonuclease (R.NheI) (Neisseria mucosa heidelbergensis)
Test: cleavage_in_vitro
Settings: cell extract of clones #1 and #9; AvaI-linearized pBR322 cleaved into 1196 and 3165 bp fragments

Work on “GCTAGC (double strand) [NheI site in AvaI-linearized pBR322]” yielded an activity (units per gram wet cells) of 1e+07.
